The target of experiment [1] is haptoglobin Hp(1-1) (human) (UniProt P00738). Kind of experiment: MST; Monolith NT.115, 25 °C, 20 mM HEPES pH 7.5, 150 mM NaCl, […] CaCl2; Alexa Fluor 647-labelled Hb (200 nM) or Hp(1-1) (500 nM or 1.0 μM) held constant, CD163 ectodomain (WT or R809T-BAP) titrated.
For experiment [2], the target named is CD163 ectodomain (CD163-WT) (human) (UniProt Q86VB7).
The target in experiment [3] is T1, CD163-WT ectodomain (C-tag, without BAP tag) (human, UniProt Q86VB7-1 46-1050).
T1 construct: Cloned into pHLsec with a C-terminal GAA linker and a C-tag; Dimers and trimers in the cryo-EM structures; also called WT CD163; CD163A
The experiment is described as follows: MST; Monolith NT.115, 25 °C; 20 mM HEPES pH 7.5, 150 mM NaCl, 2.5 mM CaCl2; fluorescent Hb (200 nM) or Hp(1-1) (0.50 µM) mixed with two-fold dilution series of CD163 (WT from 24.4 or 37.9 µM, R809T from 41.5 µM); fit to the combined triplicate. Conditions: both partners purified.

The source of these data is publication PMC12274614, “Scavenger receptor CD163 multimerises to allow uptake of diverse ligands” (Nature Communications, 2025).

By Kd is commonly meant the constant that tells how readily two partners part at equilibrium. As for “CD163 ectodomain (CD163-WT) (from UniProt Q86VB7-1 46-1050) (domain or fragment)”, in experiment [1], the Kd is 27 µM.
Consider “Hp(2-2)Hb (haptoglobin isoform 2 - haemoglobin complex) (from UniProt P00738-1 19-160; P00738-1 162-406)”, for which, in experiment [2], the IC50 of competition for the uptake of 50 nM labelled Hp(2-2)Hb into HEK293 cells expressing full-length CD163-GFP, FACS was 0.04 µM and the uptake of fluorescently labelled Hp(2-2)Hb (0-600 nM) into HEK293 cells with or without full-length CD163-GFP (residues 46-1156), FACS was 10 fold.

B1: Haptoglobin Hp(1-1), fluorescently labelled (natural protein)
chain 1: VDSGNDVTDIADDGCPKPPEIAHGYVEHSVRYQCKNYYKLRTEGDGVYTLNNEKQWINKAVGDKLPECEAVCGKPKNPANPVQ
chain 2: ILGGHLDAKGSFPWQAKMVSHHNLTTGATLINEQWLLTTAKNLFLNHSENATAKDIAPTLTLYVGKKQLVEIEKVVLHPNYSQVDIGLIKLKQKVSVNERVMPICLPSKDYAEVGRVGYVSGWGRNANFKFTDHLKYVMLPVADQDQCIRHYEGSTVPEKKTPKSPVGVQPILNEHTFCAGMSKYQEDTCYGDAGSAFAVHDLEEDTWYATGILSFDKSCAVAEYGVYVKVTSIQDWVQKTIAEN
modifications: Alexa Fluor 647 (NHS ester labelling of the protein; sites not stated) | Alexa Fluor 647 (NHS ester labelling of the protein; sites not stated)
Take B1: in experiment [3], the equilibrium dissociation constant (Kd) was found to be 26.6 µM.
